According to patent US20100303790A1, “USE OF BILIVERDIN REDUCTASE (BVR) AND BVR PEPTIDE FRAGMENTS TO TREAT CORONARY DISORDERS” (UNIVERSITY OF ROCHESTER, priority 2009, published 2010):
“Also recorded” adds a separate entry of the source. Where a SMILES comes first, the peptide text is derived from it. The star is where a group is joined. Cbz = O=C(OCc1ccccc1)*

Experiments:
[1] = tested on: rat neonatal cardiomyocytes; test: BVR, HO-2 and HO-1 protein levels in rat neonatal cardiomyocytes (western blot); type: cell-based; conditions: for HO-2 protein level: MG132 50 μg/ml; for effect on isoproterenol-induced BVR protein expression / effect on isoproterenol-induced HO-2 protein expression: 10 μM isoproterenol, western blot
Protocol: Neonatal Rat Cardiomyocytes: Primary cultures of neonatal rat cardiomyocytes were prepared as described previously (Ding et al., “Functional Role of Phosphodiesterase 3 in Cardiomyocyte Apoptosis: Implication in Heart Failure,” Circulation 111:2469-2476 (2005) which is hereby incorporated by reference in its entirety). Briefly, fragmented ventricular tissue from 1-2 day old Sprague-Dawley rats was subjected to multiple rounds of enzymatic digestion with collagenase II (Worthington, Lakewood, N.J.). The cells were then collected by low speed centrifugation at 4° C. Non-myocytes were removed by two rounds of pre-plating the cells on culture dishes. The enriched cardiomyocytes were cultured in DMEM with 10% FBS and 10% horse serum. The day after cell adhesion, 10 μM cytosine 1-β-D-arabinofuranoside (Sigma, St. Louis, Mo.) was added to inhibit the growth of contaminating non-myocytes.
Plasmids and Constructs: Adenovirus for expression of an endogenous PKA inhibitor (PKA251 bp) was prepared as described previously (Ding et al., “Functional Role of Phosphodiesterase 3 in Cardiomyocyte Apoptosis: Implication in Heart Failure,” Circulation 111:2469-2476 (2005), which is hereby incorporated by reference in its entirety). Rat BVR and HO-2 siRNA were designed based on the human sequences (Miralem et al., “Small Interference RNA-Mediated Gene Silencing of Human Biliverdin Reductase, but not that of Heme Oxygenase-1, Attenuates Arsenite-Mediated Induction of the Oxygenase and Increases Apoptosis in 293A Kidney Cells,” J Biol Chem 280:17084-17092 (2005), which is hereby incorporated by reference in its entirety). The BVR targeting site is at nucleotides 94-114, and the HO-2 targeting site is at nucleotides 73-93, downstream of the start codon in each case. Oligonucleotides containing the sequence of a 21 nucleotide small interference RNA were synthesized as follows: BVR siRNA, 5′-GATCCCC ([…]) TTCAAGAG ([…]) TTTTTGGAAA (SEQ ID NO:61) and 5′-AGCTTTTCCAAAAA ([…]) TCTCTTGAA ([…]) GGG (SEQ ID NO:62; HO-2 siRNA, 5′-GATCCCC ([…]) TTCAAGAGA ([…]) TTTTTGGAAA (SEQ ID NO:63) and 3′-AGCTTTTCCAAAAA ([…]) TCTCTTGAA ([…]) GGG (SEQ ID NO:64). Complementary oligonucleotides were annealed, then ligated into pSuper-Retro vector (OligoEngine Co. Seattle, Wash.). E. coli clones containing the desired constructs were identified by restriction analysis and verified by DNA sequencing. The retroviral DNA vectors for generating BVR si-rRNA and […] were transfected into the HEK293A packaging cell line, and the supernatant containing the expressed si-rBVR or si-rHO-2 retrovirus was then titrated in NIH3T3 cells. Retrovirus expressing siRNA was used to infect cells at a multiplicity of infection of 4 plaque-forming units/cell. The plasmid pcDNA-hBVR has previously been described (Lerner-Marmarosh et al., “Human Biliverdin Reductase: A Member of the Insulin Receptor Substrate Family with Serine/Threonine/Tyrosine Kinase Activity,” Proc Natl Acad Sci US A 102:7109-7114 (2005), which is hereby incorporated by reference in its entirety); pcDNA-hHO2 was constructed by cloning the HO-2 open reading frame into pcDNA3. […]

[2] = target: T1, hBVR-derived peptide KYCCSRK^296
T1 chain: KYCCSRK

[3] = target: T2, hBVR-derived peptide KKRILHC^281
T2 chain: KKRILHC

[4] = tested on: rat neonatal cardiomyocytes; test: Apoptosis of cardiomyocytes (cleaved caspase-3, TUNEL, DNA electrophoresis); type: cell-based; conditions: for DNA fragmentation by electrophoresis of genomic DNA: ISO treatment coupled with siRNA; for number of cardiac apoptotic cells (TUNEL): siRNA followed by isoproterenol, relative to absence of ISO stimulation; for level of cleaved caspase-3 protein: with 10 μM isoproterenol, 24 hours
Protocol: Western Blot Analysis: Cell lysates were prepared by homogenization in RIPA buffer (40 mM Tris-HCl, pH 7.5, 1 mM EDTA, 1 mM DTT, 0.1 mM Na3VO4, 10 μg/ml aprotinin, 5 μg/ml pepstatin, 20 μg/ml leupeptin, 1 mM bezamidine followed by centrifugation at 800×g for 10 minutes at 4° C. (Ding et al., “Functional Role of Phosphodiesterase 3 in Cardiomyocyte Apoptosis: Implication in Heart Failure,” Circulation 111:2469-2476 (2005), which is hereby incorporated by reference in its entirety). Supernatant proteins were resolved by SDS-PAGE and transferred to nitrocellulose. Western blots were examined using antibodies against β-actin (Cell Signaling), BVR (Huang et al., “Detection of 10 Variants of Biliverdin Reductase in Rat Liver by Two-Dimensional Gel Electrophoresis,” J Biol Chem 264:7844-7849 (1989), which is hereby incorporated by reference in its entirety), HO-1, HO-2 (Panahian et al., “Site of Injury-Directed Induction of Heme Oxygenase-1 and -2 in Experimental Spinal Cord Injury Differential Functions in Neuronal Defense Mechanisms?” J Neurochem 76:539-554 (2001), which is hereby incorporated by reference in its entirety), and cleaved caspase-3 (Cell Signaling, Beverly Mass.). The secondary antibody was horseradish peroxidase-conjugated goat anti-rabbit IgG (1:2,000, Bio-Rad).
Analysis of Apoptosis: The terminal deoxyribonucleotide transferase-mediated dUTP nick-end labeling (TUNEL) assay was used to detect in situ DNA fragmentation, using the In Situ Cell Death Detection Kit (Roche) as described previously (Ding et al., “Functional Role of Phosphodiesterase 3 in Cardiomyocyte Apoptosis: Implication in Heart Failure,” Circulation 111:2469-2476 (2005), which are hereby incorporated by reference in their entirety). In addition, the cells were stained for cardiomyocyte-specific sarcomeric α-actinin with the antibody EF-53 to distinguish cardiomyocytes from contaminating fibroblasts; and only EF-53 positive cells were counted. Three independent experiments were performed and an average of 1,000 EF-53 positive cells from random fields were analyzed.
DNA Electrophoresis: Total cellular DNA was isolated from untreated and treated cells by lysis in 10 mM Tris-HCl, pH 7.8; 1 mM, EDTA, 10 mM NaCl, 1% (w/v) SDS and 1 mg/ml proteinase K at 60° C. for 2 hours. The lysate was extracted twice each with phenol-choloroform (1:1, v/v) and chloroform, followed by precipitation with ethanol. The precipitate was collected by centrifugation, washed once in 70% ethanol, and resuspended in TE containing 1 mg/ml RNase at 37° C. for 30 min. DNA was resolved by electrophoresis in 2.0% agarose gels containing ethidium bromide.
It was noted that the level of cleaved caspase-3 protein, a marker for apoptosis, was increased by the inhibition of isoproterenol-induced expression of either BVR or HO-2 using siBVR or si-rHO-2, respectively (FIG. 6A). […] That apoptosis was occurring in cardiomyocytes, per se, was determined by triple staining of the cells with anti-α-actinin antibody to detect cardiomyocytes, TUNEL staining for cells undergoing apoptosis, and DAPI to detect nuclei (FIG. 6C). The merged images in FIG. 6C clearly indicate that the cardiomyocytes are undergoing apoptosis.

Molecule | HO-2 protein level ([1]; BVR gene expression inhibited by si-BVR) | HO-2 protein level ([1]; absence of isoproterenol stimulation) | BVR activity (rate of conversion of biliverdin to bilirubin at pH 6.7, NADH cofactor) in perfused rat heart [2] | BVR activity (rate of conversion of biliverdin to bilirubin at pH 6.7, NADH cofactor) in perfused rat heart [3] | effect on isoproterenol-induced BVR protein expression [1] | effect on isoproterenol-induced HO-2 protein expression [1] | DNA fragmentation by electrophoresis of genomic DNA [4] | number of cardiac apoptotic cells (TUNEL) [4] | level of cleaved caspase-3 protein [4]
CC(C)C[C@@H](C=O)NC(=O)[C@H](CC(C)C)NC(=O)[C@H](CC(C)C)NC(=O)OCc1ccccc1 [MG132] (Cbz-Leu-Leu-Leu-aldehyde) | increased the HO-2 protein levels | increased |  |  |  |  |  |  | 
rat biliverdin reductase (BVR), endogenous in perfused rat heart (protein) AEPKRKFGVVVVGVGRAGSVRLRDLKDPRSAAFLNLIGFVSRRELGSLDEVRQISLEDALRSQEIDVAYICSESSSHEDYIRQFLQAGKHVLVEYPMTLSFAAAQELWELAAQKGRVLHEEHVELLMEEFEFLRREVLGKELLKGSLRFTASPLEEERFGFPAFSGISRLTWLVSLFGELSLISATLEERKEDQYMKMTVQLETQNKGLLSWIEEKGPGLKRNRYVNFQFTSGSLEEVPSVGVNKNIFLKDQDIFVQKLLDQVSAEDLAAEKKRIMHCLGLASDIQKLCHQKK |  |  | Treatment of the heart with peptide KYCCSRK^296 alone increased BVR activity | peptide KKRILHC^281 blocked the activity of BVR, whether ISO was present or not |  |  |  |  | 
si-rBVR: retrovirus-expressed siRNA against rat BVR (SEQ ID NO:61, 62) (nucleic acid, the letters are possibly those of the target site) chain 1: GATCCCCTCTGCAGCATTCCTGAACCTGTTCAAGAGACAGGTTCAGGAATGCTGCAGATTTTTGGAAA chain 2: AGCTTTTCCAAAAATCTGCAGCATTCCTGAACCTGTCTCTTGAACAGGTTCAGGAATGCTGCAGAGGG |  |  |  |  | efficiently blocked | effectively blocked; also recorded: also blocked | DNA fragmentation could be detected | increase | increased
si-rHO-2: retrovirus-expressed siRNA against rat HO-2 (SEQ ID NO:63, 64) (nucleic acid, the letters are possibly those of the target site) chain 1: GATCCCCGAAAACCATACCAAAATGGCATTCAAGAGATGCCATTTTGGTATGGTTTTCTTTTTGGAAA chain 2: AGCTTTTCCAAAAAGAAAACCATACCAAAATGGCATCTCTTGAATGCCATTTTGGTATGGTTTTCGGG |  |  |  |  | no effect | ablated | DNA fragmentation could be detected | increase | increased
